The values below come from paper PMC12796099.

This assay has as its target human somatostatin receptor 5 (SSTR5) (human) (UniProt P35346).
UniProt P35346, sequence (P35346 whole entry): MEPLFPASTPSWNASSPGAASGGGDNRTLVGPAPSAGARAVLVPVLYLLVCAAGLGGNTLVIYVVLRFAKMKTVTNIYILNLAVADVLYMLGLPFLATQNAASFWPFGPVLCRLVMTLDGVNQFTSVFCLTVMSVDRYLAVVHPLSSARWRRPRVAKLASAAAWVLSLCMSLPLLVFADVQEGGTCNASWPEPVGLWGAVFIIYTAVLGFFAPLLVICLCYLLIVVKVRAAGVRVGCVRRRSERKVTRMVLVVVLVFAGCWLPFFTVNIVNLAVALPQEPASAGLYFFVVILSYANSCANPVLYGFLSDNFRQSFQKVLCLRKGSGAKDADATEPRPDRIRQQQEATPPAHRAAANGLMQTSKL

“SRIF-14-Sed1 periplasmic display fusion (from UniProt P61278 103-116) (ligand)” gave an autocrine GPCR activation by αPre-ligand-display fusion, DCyFIR mTq2 transcriptional reporter, relative to the Ccw14 fusion (% of the activity of the Ccw14 fusion) of 30.
